From PMC9942873 (Immunity, 2023)

What was measured:
Test in all cases: ELISA
Conditions in all cases: both partners purified
Pfs48/45 D3 [1] = molecular target: T1, Pfs48/45 D3 (Plasmodium falciparum 3D7, UniProt Q8I6T1)
[2] = molecular target: T2, recombinant full-length Pfs48/45 (Plasmodium falciparum 3D7, UniProt Q8I6T1)
Pfs48/45 D1-2 [3] = molecular target: T3, Pfs48/45 D1-2 (Plasmodium falciparum 3D7, UniProt Q8I6T1)
Pfs48/45 D2-3 [4] = molecular target: T4, Pfs48/45 D2-3 (Plasmodium falciparum 3D7, UniProt Q8I6T1)
Pfs48/45 D3 [5] = molecular target: T1, Pfs48/45 D3; remark: listed apart in the source
[6] = molecular target: T2, recombinant full-length Pfs48/45; remark: listed apart in the source
Pfs48/45 D1-2 [7] = molecular target: T3, Pfs48/45 D1-2; remark: listed apart in the source
Pfs48/45 D2-3 [8] = molecular target: T4, Pfs48/45 D2-3; remark: listed apart in the source
Pfs48/45 D3 (K287-A428) = Pfs48/45 D3 (K287-A428) (Plasmodium falciparum 3D7, UniProt Q8I6T1)
Pfs48/45 D1-2 (N28-K289) = Pfs48/45 D1-2 (N28-K289) (Plasmodium falciparum 3D7, UniProt Q8I6T1)
Chain of Pfs48/45 D1-2 (N28-K289) (Q8I6T1 whole entry, looked up): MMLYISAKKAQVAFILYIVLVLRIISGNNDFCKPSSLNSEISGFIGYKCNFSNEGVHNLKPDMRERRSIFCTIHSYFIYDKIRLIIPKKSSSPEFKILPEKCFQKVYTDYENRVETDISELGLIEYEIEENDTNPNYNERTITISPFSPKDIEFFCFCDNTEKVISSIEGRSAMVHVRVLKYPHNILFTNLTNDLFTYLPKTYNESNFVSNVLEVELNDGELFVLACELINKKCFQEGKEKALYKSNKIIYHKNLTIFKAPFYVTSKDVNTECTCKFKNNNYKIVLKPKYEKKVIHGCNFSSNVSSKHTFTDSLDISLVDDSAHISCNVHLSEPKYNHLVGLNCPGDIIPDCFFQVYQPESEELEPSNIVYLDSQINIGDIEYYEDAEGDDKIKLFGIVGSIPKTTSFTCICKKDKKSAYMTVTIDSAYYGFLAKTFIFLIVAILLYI

T4 sequence (Q8I6T1 184-428): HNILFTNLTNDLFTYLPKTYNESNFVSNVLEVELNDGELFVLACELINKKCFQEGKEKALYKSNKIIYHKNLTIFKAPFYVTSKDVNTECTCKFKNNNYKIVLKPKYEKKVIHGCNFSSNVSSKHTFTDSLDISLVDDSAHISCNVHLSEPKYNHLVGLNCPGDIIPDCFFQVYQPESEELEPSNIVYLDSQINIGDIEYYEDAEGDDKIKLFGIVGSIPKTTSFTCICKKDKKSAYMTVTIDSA
T3 sequence (Q8I6T1 28-289): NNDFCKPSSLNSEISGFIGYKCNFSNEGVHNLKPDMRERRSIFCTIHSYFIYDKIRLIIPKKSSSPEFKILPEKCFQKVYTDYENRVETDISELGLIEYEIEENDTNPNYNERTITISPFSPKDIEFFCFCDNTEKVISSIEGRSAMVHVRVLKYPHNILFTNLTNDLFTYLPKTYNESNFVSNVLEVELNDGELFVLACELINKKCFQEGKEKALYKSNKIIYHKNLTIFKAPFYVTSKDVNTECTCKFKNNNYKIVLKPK
Chain of Pfs48/45 D3 (K287-A428) (Q8I6T1 whole entry, looked up): as the sequence (Q8I6T1 whole entry, looked up) above
T2 sequence (Q8I6T1 28-428): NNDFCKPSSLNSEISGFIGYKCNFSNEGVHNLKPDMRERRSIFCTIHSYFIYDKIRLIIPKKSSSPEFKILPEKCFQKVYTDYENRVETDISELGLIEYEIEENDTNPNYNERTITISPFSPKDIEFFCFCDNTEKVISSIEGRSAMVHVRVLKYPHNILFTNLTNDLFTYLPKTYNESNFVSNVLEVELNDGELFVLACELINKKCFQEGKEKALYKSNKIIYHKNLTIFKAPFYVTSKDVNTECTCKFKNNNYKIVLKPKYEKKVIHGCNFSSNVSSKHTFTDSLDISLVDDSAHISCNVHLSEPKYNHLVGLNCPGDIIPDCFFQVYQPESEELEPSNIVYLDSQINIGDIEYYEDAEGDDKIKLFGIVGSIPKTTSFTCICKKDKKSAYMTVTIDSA
T1 sequence (Q8I6T1 287-428): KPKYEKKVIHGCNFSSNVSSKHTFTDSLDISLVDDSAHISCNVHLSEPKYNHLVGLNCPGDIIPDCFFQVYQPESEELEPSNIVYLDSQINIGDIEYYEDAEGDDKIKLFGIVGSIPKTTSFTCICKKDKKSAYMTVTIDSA

B1: RUPA-154 (antibody, V domains shown)
VH: QVQLVQSGAEVRKPGASVKVSCRTSGYTFTDYYMHWVRQAPGEGLEWMGSINPKSGGTSYAERFQGRVTMTMETSVSTAYLDLSSLRSDDTAVYYCARLLYSRAVYYYGMDVWGQGTTVTVSS
VL: SYELTQPPSVSVAPGKTARITCGGKDLGSKSVHWYQQKPGQAPVLVIYYDNIRPSGIPERFSGSNSGNTATLTISRVEAGDEADYYCQVWDSSSDHYVFGRGAKVTVL
notes: human IgG1; source: recombinant human IgG1, 293T (Protein A purified) or GenScript
B1: binds (Pfs48/45 D3 [1]); binds [2]; binds (Pfs48/45 D1-2 [3]). B1: binds (Pfs48/45 D2-3 [4]).

B2: RUPA-25 (antibody, V domains shown)
VH: QVQLVQSGAEVKKPGASVKVSCTASGYNFLTHDISWVRQATGQGLEWMGWMNPNTGKKGYVQKFQGRVTMDRDMSKSTAYMELRSLTSEDTAVYYCVRGVGSYYGSGGWFDPWGQGTLVTVSS
VL: QPVLTQPPSASETPGQKVTISCSGSSSNIGSDTVSWYVQLPGTAPKLLIYNDNQRPSGVPDRFSGSKSGTSASLAISGLQSEDEADYYCATWDASLKRRVFGGGTTLTVL
notes: as for B1
B2: no binding (tested: 10 ug/ml) (Pfs48/45 D3 [5]); binds [6]; binds (Pfs48/45 D1-2 [7]). B2: binds (Pfs48/45 D2-3 [8]).

B3: RUPA-41 (antibody, V domains shown)
VH: QVQLVQSGAELKKPGASVKVSCKASGYTFTSHDITWVRQAAGQGLEWMGWMNPNTGDKGYAQKFQGRVTLTRNMSTRTAYMELNSLTSEDTAVYYCARGVGTYHGAGGWFDPWGQGTLVTVSS
VL: QSVVTQPPSVSETPGQRVTISCSGSSSNIGSNIVSWYQQLPGTAPKLLIYSDTQRPSGVPDRFSASKSGTSASLAISGLHSEDEADYYCATWDDSLKRGVFGGGTKLTVL
notes: as for B1
B3: no binding (tested: 10 ug/ml) (Pfs48/45 D3 [5]); binds [6]; binds (Pfs48/45 D1-2 [7]). B3: binds (Pfs48/45 D2-3 [8]).

B4: RUPA-50 (hIgG1) (antibody, V domains shown)
VH: QVHLVESGGGVVQPGRSLRLSCAASGFTFRSYGMHWVRRVPGKGLEWVATISYDETFKDYPDSVKGRFTISRDNSKNTLFLQMNSLRPADTAVYYCAKDRAHSMHYFEYWGRGTLVTVSS
VL: SYELTQPPSVSVSPGQTARLTCSGDALPKKFAYWYQLKSGQAPVLVIYEDSKRPSGIPERFSGSSSGTTATLTISGAQVEDEADYYCYSRDGSGDQKNIFGGGTKLTVL
notes: IgG1; source: 293T cells, purified (Protein A), or produced as recombinant human IgG1 (GenScript)
B4: binds (Pfs48/45 D3 (K287-A428)).

B5: RUPA-117 (antibody, V domains shown)
VH: QLQLQESGPGLVKPSETLSLTCTVSGGSISRSPYYWGWIRQPPGKGLEWFGSVYNNGSTYYNPSLKSRVTISVDTSKNQFSLKLSSVTAADTALYYCARHGGSTGMKVVVIAPPDYWGQGTLVTVSS
VL: DIQMTQSPATLSASVGDRVTITCRASQSISIWLAWYQQKPGEAPKLLIYKASSLQSGVPSRFSGSASGTKFSLTISSLQPDDFATFYCQQYHSYPYTFGQGTKLEIK
notes: as for B1
B5: binds (Pfs48/45 D3 [1]); binds [2]; binds (Pfs48/45 D2-3 [4]).

B6: RUPA-43 (antibody, V domains shown)
VH: QVLLVQSGAEVKKPGASVKVSCKASGYTFLYHDISWVRQATGQGLEWMGWMNPNTGDTGYAQRFQGRVTMTRDMSISTAYLELGSLSSEDTAVYYCARGVGSYHGSGGWLDPWGQGTLVIVSS
VL: QSVLTQPPSVSETPGQRVTISCSGTSSNIGINTVNWYQQLPGTAPKLLIHNDNQRPSGVPDRFAGSKSGSSAALAISGLQSEDEADYYCGTWDDSLKRRVFGGGTKLTVL
notes: as for B1
B6: no binding (tested: 10 ug/ml) (Pfs48/45 D3 [5]); binds [6]; binds (Pfs48/45 D1-2 [7]). B6: binds (Pfs48/45 D2-3 [8]).

B7: RUPA-29 (hIgG1) (antibody, V domains shown)
VH: QVHLVESGGGVVQPGRSLRLSCAASGFTFRSYGMHWVRLAPGKGLEWVTAIWYDGSKKHFADSVKGRFTISRDNSKNTLYLQMSSLRVEDTAVYYCARDFAHGAFYPVDWGRGTLVTVSS
VL: SYELTQPPSVSVSPGQTARITCSGDALPKKHAYWYQQKSGQAPVLVIYDDSKRPSGIPERFSGSSSGTMATLSISGAQVEDEAAYYCYSSDTSANYWVFGGGTKLTVL
notes: as for B4
B7: binds (Pfs48/45 D3 (K287-A428)).

B8: RUPA-89 (antibody, V domains shown)
VH: DVYLLESGGGLVQPGGSLRLSCAASGFTFSNDAMSWVRQAPGKGLEWVSGILASAPRTYYADSVKGRFIISRDNSKNTLYLQMNSLRVEDTAIYYCAKEGILRPFDPWGQGTLVTVSS
VL: QSALTQPASMSGSPGQSITISCTGTSSDVGGFKYVSWYQHHPDKAPKLIIYEVNQRPSGVSNRFSGSKSGNTASLTISGLQAEDEADYYCSSYTSITYHHVFGTGTKVTVL
notes: as for B1
B8: binds (Pfs48/45 D3 [1]); binds [2]; binds (Pfs48/45 D2-3 [4]).

B9: RUPA-160 (antibody, V domains shown)
VH: QVQLVQSGAEVKKPGASVKASCKASGYTFDNFDIIWARQATGQGLEWMGWMNPNTGKKGYAQNLKDRVTMTRDSSISTAYLELSSLRSEDTAVYYCVRAVGSYYGSGGWFDPWGQGTLVTVSS
VL: QSVLTQPPSASGTPGQRVTIACSGSSSNIGGNNVKWYQQLPGTAPKLVIYNNDERPPGVPDRVSGSKSGTSASLAISGVQSEDEADYYCATWDDSMKREVFGGGTKLTVL
notes: as for B1
B9: no binding (tested: 10 ug/ml) (Pfs48/45 D3 [1]); binds [2]; binds (Pfs48/45 D1-2 [3]). B9: binds (Pfs48/45 D2-3 [4]).

B10: RUPA-42 (antibody, V domains shown)
VH: QVQLQESGPGLVKPSQTLSLTCTVSGGSISSGGYYWSWIRQHPGKGLEWIGYIYYSGTTYYHPSLESRVTISVDTSKNQFSLKLNSVTAADTAIYYCARAGLVAAIRGSRRGQQGDYFDHWGQGTLVTVSS
VL: SYELTQPPSVSVSPGQTASITCSGEKLGDRYVSWYQQKPGQSPLLVLHQDKKRPSGIPERFSGSNSGNTATLTISGTQALDEADYFCQAWDSSTGVFGGGTKLTVL
notes: as for B1
B10: binds (Pfs48/45 D3 [5]); binds [6]; no binding (tested: 10 ug/ml) (Pfs48/45 D1-2 [7]). B10: binds (Pfs48/45 D2-3 [8]).

B11: RUPA-100 (antibody, V domains shown)
VH: QVQLVESGGGVVQPGRSLRLSCAASGFSFSHYGMHWVRQAPGKGLEWVAVISYDGNYKYYGDSVKGRFTISRDNFKNTLYLQMNSLRPEDTAVYYCAKGKAHSCVSTSCYTDFWGQGTLVTVPS
VL: SYELTQPPSVSVSPGQTARITCSGDALPKKYAYWYQQKSGQAPVLVIYEDSKRPSGIPERFSGSSSGTMATLTISGAQVEDEGDYYCYSTDSSYNHRGVFGGGTKLTVL
notes: as for B1
B11: binds (Pfs48/45 D3 [1]); binds [2]; binds (Pfs48/45 D2-3 [4]).

B12: RUPA-54 (hIgG1) (antibody, V domains shown)
VH: QVQLVESGGGVVQPGRSLRLSCTASGFTFRSYGIHWVRQAPGKGLQWVAFISYDGRNKYYADSVKGRFTISRDNSKNTLYLQMSGLRADDTAVYYCAKDSDNDCTATSCYTVSWGQGTLVTVSS
VL: SYELTQPPSVSVSPGQTARITCSGDALPKKYAYWYQQKSGQAPVLVIYEDKKRPSGIPERFSGSSSGTMATLTISGAQVEDEADYYCYSTDSRTDHGGIFGGGTKLTVL
notes: as for B4
B12: binds (Pfs48/45 D3 (K287-A428)).

B13: RUPA-100 (hIgG1) (antibody, V domains shown)
VH: QVQLVESGGGVVQPGRSLRLSCAASGFSFSHYGMHWVRQAPGKGLEWVAVISYDGNYKYYGDSVKGRFTISRDNFKNTLYLQMNSLRPEDTAVYYCAKGKAHSCVSTSCYTDFWGQGTLVTVPS
VL: SYELTQPPSVSVSPGQTARITCSGDALPKKYAYWYQQKSGQAPVLVIYEDSKRPSGIPERFSGSSSGTMATLTISGAQVEDEGDYYCYSTDSSYNHRGVFGGGTKLTVL
notes: as for B4
B13: binds (Pfs48/45 D3 (K287-A428)).

B14: RUPA-106 (antibody, V domains shown)
VH: EVELLESGGGLVQPGGSLRISCAASGFIFNTYAMSWVRQAPGKGLEWVSAISGSGRSTYYADSVKGRFTISRDNSNNTLYLQMNSLRAEDTAVYYCAKDTHSNILYYLFDYWGQGTLVTVSS
VL: EIVLTQSPATLSLSPGERGTLSCRASQSVSSSYLGWYQQKPGQAPRLLIYGASSRATGIPDRFSGSGSGTDFTLTISRLEPEDFAVYYCHQYGISPATFGQGTKVEIK
notes: as for B1
B14: binds (Pfs48/45 D3 [1]); binds [2]; binds (Pfs48/45 D2-3 [4]).

B15: RUPA-58 (hIgG1) (antibody, V domains shown)
VH: QVQLVQSGPEAKKPGASVKVSCQASGYPFSGYYMHWLRQAPGQGLEWMGWMNPNSGGTKYAQRFQGRVTMTRDTSISTAHMELRGLRSDDTAVYYCARDYCTGSSCYRTDYDYWGQGTLVTVSS
VL: DIQMTQSPSSLSASVGDRVTITCRASQIISTYLNWYQHKPGKAPKLLIKSASTLQSGVPSRFSGSGSGTDFTLTITSLQPEDFATFYCQQSYRDPITFGQGTRLEIK
notes: as for B4
B15: binds (Pfs48/45 D1-2 (N28-K289)).

B16: RUPA-140 (antibody, V domains shown)
VH: EVQLLESGGGLVQPGGSLRLSCVASGFSFSNFAMNWVRQAPGKGLEWVSAISGSGGSTYYIDSVKGRFSISRDTSKNTLYLQMNSLRAEDTAVYYCAKVGGRSIFGEATDYWGQGSLVTVSS
VL: DIQMTQSPSSLSASVGDRVTITCRASQSINKYLNWYQQKPGRAPKLLIQVASSLQSGVPSRFSGSGSGTDFTLTISSLQPEDFATYYCQQTYTLPLIFGGGTKVEIK
notes: source: recombinant human IgG1, 293T (Protein A purified) or GenScript
B16: binds (Pfs48/45 D3 [1]); binds [2]; binds (Pfs48/45 D2-3 [4]).

B17: RUPA-34 (antibody, V domains shown)
VH: EVQLVESGGGLIQPGGSLRLSCAASGFTVSSNYMSWVRQAPGKGLEWVSVIYSGGSGGSTYYADSVKGRFTISRDNLKNTLYLQMNNLRAEDAAVYYCVRDSRGWGYFDDWGQGTLVTVSS
VL: EVVLTQSPGTLSLSPGERATLSCRASQSIRTNYLAWYQQKPGQTPRLLIYGASSRATGIPDRFSGSGSGTDFTLTISRLEPEDFAVYFCQQYQNSPWTFGQGTKVEIK
notes: as for B1
B17: no binding (tested: 10 ug/ml) (Pfs48/45 D3 [5]); binds [6]; binds (Pfs48/45 D1-2 [7]). B17: binds (Pfs48/45 D2-3 [8]).
